From patent US20170056521A1

Target: human HLA-A2 (human)
Assay: single colony ELISA; soluble scFv supernatant on coated HLA-A2 (0.5 µg/well), anti-E-tag-HRP detection

OD450: 1.3 OD450
B1: scFv clone 3E10 (scFv)
scFv: DIQMTQSPSSLSASVGDRVTITCRASQDVFFFVAWYQQKPGKAPKLLIYGPPGLYSGVPSRFSGSGSGTDFTLTISSLQPEDFATYYCQQYFSFPITFGQGTKVEIKRGGGGSIEGRSGGGGSEVQLVESGGGLVQPGGSLRLSCAASGFTISNGGIHWVRQAPGKGLEWVASIWPSGGYTSYADSVKGRFTISADTSKNTAYLQMNSLRAEDTAVYYCARFGVNYHGIMDYWGQGTLVTVSS
